“Also recorded” adds a separate entry of the source.
Assays:
[1] = tested on: Jurkat cells; assay: WST-1 cell viability assay on Jurkat cells; format: cell-based, human; details: 48 h treatment
Procedure: FIG. 11—Cytotoxic effects of C5-DAB-SN-38. To determine the effect of C5-DAB-SN-38 on CLBL-1 and Jurkat cells, a cell viability assay was performed using the WST-1 reagent. 6×10^4 cells were seeded and treated with increasing amounts of compound. After 48 h treatment, cell viability was assessed. […] B) On the other hand, ADC had no effect on Jurkat cells, proving the specificity of the ADC. C5 was used as control. Best-fit EC50 values of each formulation were calculated using GraphPad Prism software (version 9.2.0, San Diego, CA, USA) using the log (inhibitor) vs response (variable slope) function. D) Effects of C5-DAB-SN-38 on DNA TopoI activity. To evaluate the effects of C5-DAB-SN-38 on DNA Topo I, we evaluated its activity using the Human Topoisomerase I Assay Kit. […]
To determine the effect of VL-DAB-SN-38 in CLBL-1 and Jurkat cell proliferation, a cell viability assay was performed using the Cell Proliferation Reagent WST-1 (Roche, Basel, Switzerland). […] After 48 h treatment, cell viability was assessed using WST-1, following the manufacturer's instructions. Absorbance at 450 nm was measured using the iMark microplate Reader (Bio-Rad). […] Best-fit EC50 values of each formulation were calculated using GraphPad Prism software (version 8.0, San Diego, CA, USA) using the log (inhibitor)) vs response (variable slope) function.

[2] = tested on: CLBL-1 cells; assay: Flow cytometry binding of C5 VL sdAb to CLBL-1 cells; format: cell-based, canine; details: 3 μM C5, 37° C., different timepoints
Procedure: FIG. 8. Binding and internalization characterization of C5 VL sdAb. C5 binding and internalization properties against CLBL-1 cells were evaluated by cytometry and immunofluorescence. A) For flow cytometry analysis, 1×10^6 of CLBL-1 cells were incubated with Live/Dead reagents for 30 minutes. Then, 3 μM of C5 were incubated with the cells for different timepoints at 37° C. After, cells were washed, fixed, permeabilized, and incubated for 30 min with anti-HA antibody, washed twice and incubated with anti-rat Alexa Fluor-488. […] B) By contrast, no binding of C5 was detected with Jurkat cells. C) To confirm the binding of C5 to the CLBL-1 verified by flow cytometry, we evaluated its distribution on the cells by immunofluorescence assay. […] Representative microphotographs with C5 (green) and DAPI stained-nuclei (blue) are shown.
To evaluate the binding of the VL C5 to the CLBL-1 cells, a FACS analysis was performed. […]
The C5 VL sdAb binding and cellular internalization properties towards CLBL-1 cells were studied by cytometry analysis and immunofluorescence. […] Live/dead reagent was used to exclude dead cells and the background noise was also evaluated in the control with the secondary antibody (data not shown). To better characterize the binding of the C5 to the CLBL-1 cells, we further evaluated the internalization of the C5 sdAb on the cells using an immunofluorescence assay. […]

[3] = tested on: CLBL-1 xenograft tumours; details: mouse, in vivo
Procedure: C5 was radiolabelled with ^99mTc(CO)3(H2O)3 and intravenously injected in the tail vein of a xenograft mice model of cNHL. Mice were sacrificed at 15 min and 3 h and the radioactivity of each organ was measured. The activity in each organ was calculated and expressed as a percentage of injected radioactivity dose per gram of organ or tissue (% ID/g).
Radiochemical purity (RP) was checked by Reversed-phase high-performance liquid chromatography (RP-HPLC) and instant thin-layer chromatography silica gel (ITLC-SG, Agilent Technologies, USA). […] Radioactivity distribution on the ITLC-SG strip was evaluated using a miniGita Star scanning device (Elysia-Raytest, (Germany) coupled with a Gamma BGO-V-Detector (Elysia Raytest). For purification and concentration of the ^99mTc-labeled sdAb, a 3 K Amicon (Merck Milipore) was used. ^99mTc(CO)3—C5 diluted in PBS was used for the biodistribution studies after RP determination by ITLC-SG. For that, mice were intravenously injected in the tail vein with 100 μl of ^99mTc(CO)3—C5 and sacrificed by cervical dislocation at 15 min, and 3 h after injection. Radioactivity was measured using a dose calibrator (Carpintec CRC-15W). After the removal of the tumour and tissues of interest, their radioactivity was measured using a γ-counter (Berthold, Germany). […]

B1: C5: rabbit derived anti-cNHL VL sdAb clone, SEQ. ID. 3; ^99mTc radiolabelled for biodistribution (antibody, listed as Oryctolagus cuniculus, V domains shown)
VL: ELDLTQTPSPVSASVGGTATINCQASQSVYNNYWWAWYQQRPGHPPKLLIYETSKLASGVPSRFKGSGSGTQFTLTIIDVQCDDAATYVCAGGYGTVIDNAFGGGTELEIL
modifications: 99mTc(CO)3 radiolabel
notes: ID; ^99mTc radiolabelled for biodistribution
B1 was tested, and the “effect on Jurkat cell viability/proliferation” value [1] was “does not affect cell proliferation”, the “binding to CLBL-1 cells (flow cytometry)” value [2] was “specifically binds; also recorded: demonstrated to bind” and the “binding to CLBL-1 cells (flow cytometry)” value ([2]; listed as VL C5) was “shown to bind to the cells, increasing its interaction with time”. For the same molecule, the “elimination from blood and major organs” value [3] was “fast elimination”.

Reference: patent publication US20240245800A1, “HIGHLY SPECIFIC RABBIT SINGLE -DOMAIN ANTIBODIES FOR DRUG DELIVERY IN IMMUNOTHERAPY APPLICATIONS” (TECHNOPHAGE, INVESTIGAÇÃO E DESENVOLVIMENTO EM …, priority 2021, published 2024)
